Results as given in patent publication US20220281982A1.

Target: NKG2D (human) (UniProt P26718)
Assay: cell-based or functional assay

Sequence of UniProt P26718 (P26718 whole entry): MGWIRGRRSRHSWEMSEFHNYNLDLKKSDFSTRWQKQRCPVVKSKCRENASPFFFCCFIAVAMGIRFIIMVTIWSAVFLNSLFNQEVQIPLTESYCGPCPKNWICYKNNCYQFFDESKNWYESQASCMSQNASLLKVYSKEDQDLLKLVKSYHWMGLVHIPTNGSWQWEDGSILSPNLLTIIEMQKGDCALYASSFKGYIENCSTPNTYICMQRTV

- Ki67 expression of T cells cultured without IL-2: 80%
B1: anti-NKG2D-anti-CS1 bispecific antibody (bispecific antibody, part only; not given: anti-CS1 scFv and linkers, part only)
chain, part: QVQLVESGGGLVKPGGSLRLSCAASGFTFSSYGMHWVRQAPGKGLEWVAFIRYDGSNKYYADSVKGRFTISRDNSKNTLYLQMNSLRAEDTAVYYCAKDRGLGDGTYFDYWGQGTTVTVSSQSALTQPASVSGSPGQSITISCSGSSSNIGNNAVNWYQQLPGKAPKLLIYYDDLLPSGVSDRFSGSKSGTSAFLAISGLQSEDEADYYCAAWDDSLNGPVFGGGTKLTVLPSGQAGAAASESLFVSNHAYHHHHHH
